Assay results as given in patent publication US20260034234A1 (AGENSYS, published 2026).
Positions count from the first letter of the chain named.

Experiments:
[1] = target: T1, 191P4D12 (human, wild type, on cells) (human, UniProt Q96NY8 32-510); test: FACS titration of Ha22-2(2,4)6.1 on PC3 cells expressing 191P4D12
T1 construct: 510 amino acid ORF expressed on PC3, RAT/Rat1(E) cells and present in cancer cell lines and tumor specimens; also called human 191P4D12; wild-type 191P4D12
T1 sequence: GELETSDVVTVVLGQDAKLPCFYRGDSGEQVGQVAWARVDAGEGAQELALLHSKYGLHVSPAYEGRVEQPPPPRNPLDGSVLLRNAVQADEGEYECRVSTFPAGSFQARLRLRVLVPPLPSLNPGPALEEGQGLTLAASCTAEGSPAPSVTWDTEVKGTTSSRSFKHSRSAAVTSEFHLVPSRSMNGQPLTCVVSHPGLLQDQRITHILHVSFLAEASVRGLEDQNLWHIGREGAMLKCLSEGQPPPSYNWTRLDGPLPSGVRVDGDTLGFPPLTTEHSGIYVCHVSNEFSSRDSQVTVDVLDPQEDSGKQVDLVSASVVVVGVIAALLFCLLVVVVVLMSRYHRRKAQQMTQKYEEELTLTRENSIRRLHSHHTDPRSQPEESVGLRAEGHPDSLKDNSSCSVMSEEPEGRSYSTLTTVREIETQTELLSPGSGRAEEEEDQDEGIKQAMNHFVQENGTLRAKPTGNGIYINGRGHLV

[2] = target: T1, 191P4D12 (human, wild type, on cells); test: FACS titration on PC3 cells expressing 191P4D12
[3] = target: T2, Cynomolgus 191P4D12 (on PC3 cells) (cynomolgus monkey, UniProt A0A2K5WES1 32-510); test: FACS titration on PC3 cells expressing the cynomolgus ortholog
T2 construct: also called PC3-Cynomolgus-191P4D12; Cyno ortholog
T2 sequence: T1 sequence with V39A, I230V, A437T

B1: Ha22-2(2,4)6.1 MAb (antibody, human IgG1, kappa, V domains shown)
VH: EVQLVESGGGLVQPGGSLRLSCAASGFTFSSYNMNWVRQAPGKGLEWVSYISSSSSTIYYADSVKGRFTISRDNAKNSLSLQMNSLRDEDTAVYYCARAYYYGMDVWGQGTTVTVSS
VL: DIQMTQSPSSVSASVGDRVTITCRASQGISGWLAWYQQKPGKAPKFLIYAASTLQSGVPSRFSGSGSGTDFTLTISSLQPEDFATYYCQQANSFPPTFGGGTKVEIKR
notes: Fully human IgG1 kappa from XenoMouse; Used biotinylated in the Western blot; also called 191P4D12 MAb Ha22-2(2,4)6.1; Ha22-(2,4)6.1 MAb
- EC50 (read off the curve) [1]: ~0.6 nM
- EC50 (read off the curve) [2]: ~0.4 nM
- EC50 (read off the curve) [3]: ~0.3 nM
